Test results from patent US20170166621A1 (Novartis, published 2017).
Each block holds one binder with its values, some of them ahead of it.

How the values were obtained:
GLP-1 receptor = GLP-1 receptor (UniProt P43220 24-463, limits assumed); test: cell-based or functional assay
FGF21 receptor = test: cell-based or functional assay

cAMP EC50 (fold-Ex-4); GLP-1R only cells (GLP-1 receptor): 6 fold | cAMP EC50 (fold-Ex-4); GLP-1R/FGFR1c/beta-klotho cells (GLP-1 receptor): 0.4 fold | cAMP EC50 (nM); GLP-1R only cells (GLP-1 receptor): 64 nM | cAMP EC50 (nM); GLP-1R/FGFR1c/beta-klotho cells (GLP-1 receptor): 2.4 nM
B1: GLP-1(7-35; A8S)-GSGGGGSGGG-FGF21(33-209; Q56E-D74H-Q82E-R105K-K150R-R154C-40 kDa branched PEG-R159Q-S195A) (ligand)
chain: HSEGTFTSDVSSYLEGQAAKEFIAWLVKGGSGGGGSGGGDSSPLLQFGGQVRQRYLYTDDAQETEAHLEIREDGTVGGAAHQSPESLLELKALKPGVIQILGVKTSRFLCQKPDGALYGSLHFDPEACSFRELLLEDGYNVYQSEAHGLPLHLPGNRSPHCDPAPQGPARFLPLPGLPPALPEPPGILAPQPPDVGSSDPLAMVGPSQGRSPSYAS
modifications: 40 kDa branched PEG on Cys at R154C (FGF21 numbering)

cAMP EC50 (fold-Ex-4); GLP-1R only cells (GLP-1 receptor): 3.2 fold | cAMP EC50 (fold-Ex-4); GLP-1R only cells; V253 + V76 co-treatment (GLP-1 receptor): 3.5 fold | cAMP EC50 (fold-Ex-4); GLP-1R/FGFR1c/beta-klotho cells (GLP-1 receptor): 4.1 fold | cAMP EC50 (fold-Ex-4); GLP-1R/FGFR1c/beta-klotho cells; V253 + V76 co-treatment (GLP-1 receptor): 2.1 fold | cAMP EC50 (nM); GLP-1R only cells (GLP-1 receptor): 34 nM | cAMP EC50 (nM); GLP-1R only cells; V253 + V76 co-treatment (GLP-1 receptor): 38 nM | cAMP EC50 (nM); GLP-1R/FGFR1c/beta-klotho cells (GLP-1 receptor): 24 nM | cAMP EC50 (nM); GLP-1R/FGFR1c/beta-klotho cells; V253 + V76 co-treatment (GLP-1 receptor): 12 nM | potency in the FGF21 receptor assay (FGF21 receptor): ≥ 1000 fold less potent
B2: GLP-1(7-35; A8S)-SGGGGSGGG-FGF21(33-194; R154C-40 kDa branched PEG) (ligand)
chain: HSEGTFTSDVSSYLEGQAAKEFIAWLVKGGSGGGGSGGGDSSPLLQFGGQVRQRYLYTDDAQQTEAHLEIREDGTVGGAADQSPESLLQLKALKPGVIQILGVKTSRFLCQRPDGALYGSLHFDPEACSFRELLLEDGYNVYQSEAHGLPLHLPGNKSPHCDPAPRGPARFLPLPGLPPALPEPPGILAPQPPDVGSSDPLS
modifications: 40 kDa branched PEG on Cys at R154C (FGF21 numbering)
